Experimental data: patent US11840557B2, “Wnt7 variants capable of activating g-protein coupled receptor (Gpr)124/Reck/frizzled/lipoprotein receptor-related protein (LRP)-mediated Wnt signaling” (UNIVERSITÉ LIBRE DE BRUXELLES, priority 2018, dated 2023)

Assays:
Gpr124/Reck/Fz/LRP = target: T1, Gpr124/Reck/Fz/LRP (UniProt O70421+O95980); test: STF dual luciferase assay, Gpr124/Reck-dependent signaling in HEK293-STF cells; type: cell-based; conditions: Gpr124, RECK and Fz1 transfection
T1 construct: host or cells: HEK293-STF cells
T1 sequence (O95980 23-942 limits assumed): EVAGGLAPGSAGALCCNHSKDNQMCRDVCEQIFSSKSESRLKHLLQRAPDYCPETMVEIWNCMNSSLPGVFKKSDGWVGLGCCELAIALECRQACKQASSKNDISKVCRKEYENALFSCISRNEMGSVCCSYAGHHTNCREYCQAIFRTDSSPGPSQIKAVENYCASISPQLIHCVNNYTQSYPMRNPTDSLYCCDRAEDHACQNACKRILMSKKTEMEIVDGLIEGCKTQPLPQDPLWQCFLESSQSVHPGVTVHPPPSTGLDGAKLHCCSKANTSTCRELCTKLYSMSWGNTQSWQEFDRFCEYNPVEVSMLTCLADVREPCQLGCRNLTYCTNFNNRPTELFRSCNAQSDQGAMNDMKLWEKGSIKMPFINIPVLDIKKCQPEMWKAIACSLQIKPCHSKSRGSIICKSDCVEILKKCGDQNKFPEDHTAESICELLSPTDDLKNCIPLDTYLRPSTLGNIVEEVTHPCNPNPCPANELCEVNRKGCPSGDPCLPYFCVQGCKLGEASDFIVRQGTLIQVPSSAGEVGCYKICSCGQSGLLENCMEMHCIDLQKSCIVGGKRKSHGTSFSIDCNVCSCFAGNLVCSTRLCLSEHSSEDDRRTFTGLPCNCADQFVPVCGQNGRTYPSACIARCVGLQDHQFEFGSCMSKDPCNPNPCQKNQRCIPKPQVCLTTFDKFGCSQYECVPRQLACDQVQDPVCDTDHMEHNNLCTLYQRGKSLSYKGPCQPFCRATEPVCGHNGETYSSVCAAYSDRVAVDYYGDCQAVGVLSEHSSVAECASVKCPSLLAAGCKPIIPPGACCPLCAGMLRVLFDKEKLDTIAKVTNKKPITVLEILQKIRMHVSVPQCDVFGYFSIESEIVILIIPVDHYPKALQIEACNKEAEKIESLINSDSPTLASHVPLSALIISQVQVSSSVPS
T1 sequence (O70421 69-642): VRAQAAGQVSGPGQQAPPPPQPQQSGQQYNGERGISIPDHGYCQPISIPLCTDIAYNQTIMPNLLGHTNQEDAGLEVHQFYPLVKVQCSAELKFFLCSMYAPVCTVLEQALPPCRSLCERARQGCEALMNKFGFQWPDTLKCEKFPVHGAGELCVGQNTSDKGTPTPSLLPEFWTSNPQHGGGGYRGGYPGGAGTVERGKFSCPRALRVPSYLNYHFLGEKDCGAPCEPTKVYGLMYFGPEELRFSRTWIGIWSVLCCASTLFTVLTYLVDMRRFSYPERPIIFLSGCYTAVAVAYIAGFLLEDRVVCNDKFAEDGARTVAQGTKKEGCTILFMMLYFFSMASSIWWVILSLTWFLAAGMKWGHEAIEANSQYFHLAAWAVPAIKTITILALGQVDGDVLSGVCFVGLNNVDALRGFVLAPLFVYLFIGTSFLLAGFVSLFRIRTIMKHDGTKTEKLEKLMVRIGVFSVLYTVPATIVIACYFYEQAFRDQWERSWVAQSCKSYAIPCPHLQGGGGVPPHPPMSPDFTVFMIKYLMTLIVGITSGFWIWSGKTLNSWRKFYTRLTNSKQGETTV
T1 sequence (Q96PE1 34-1338 partner): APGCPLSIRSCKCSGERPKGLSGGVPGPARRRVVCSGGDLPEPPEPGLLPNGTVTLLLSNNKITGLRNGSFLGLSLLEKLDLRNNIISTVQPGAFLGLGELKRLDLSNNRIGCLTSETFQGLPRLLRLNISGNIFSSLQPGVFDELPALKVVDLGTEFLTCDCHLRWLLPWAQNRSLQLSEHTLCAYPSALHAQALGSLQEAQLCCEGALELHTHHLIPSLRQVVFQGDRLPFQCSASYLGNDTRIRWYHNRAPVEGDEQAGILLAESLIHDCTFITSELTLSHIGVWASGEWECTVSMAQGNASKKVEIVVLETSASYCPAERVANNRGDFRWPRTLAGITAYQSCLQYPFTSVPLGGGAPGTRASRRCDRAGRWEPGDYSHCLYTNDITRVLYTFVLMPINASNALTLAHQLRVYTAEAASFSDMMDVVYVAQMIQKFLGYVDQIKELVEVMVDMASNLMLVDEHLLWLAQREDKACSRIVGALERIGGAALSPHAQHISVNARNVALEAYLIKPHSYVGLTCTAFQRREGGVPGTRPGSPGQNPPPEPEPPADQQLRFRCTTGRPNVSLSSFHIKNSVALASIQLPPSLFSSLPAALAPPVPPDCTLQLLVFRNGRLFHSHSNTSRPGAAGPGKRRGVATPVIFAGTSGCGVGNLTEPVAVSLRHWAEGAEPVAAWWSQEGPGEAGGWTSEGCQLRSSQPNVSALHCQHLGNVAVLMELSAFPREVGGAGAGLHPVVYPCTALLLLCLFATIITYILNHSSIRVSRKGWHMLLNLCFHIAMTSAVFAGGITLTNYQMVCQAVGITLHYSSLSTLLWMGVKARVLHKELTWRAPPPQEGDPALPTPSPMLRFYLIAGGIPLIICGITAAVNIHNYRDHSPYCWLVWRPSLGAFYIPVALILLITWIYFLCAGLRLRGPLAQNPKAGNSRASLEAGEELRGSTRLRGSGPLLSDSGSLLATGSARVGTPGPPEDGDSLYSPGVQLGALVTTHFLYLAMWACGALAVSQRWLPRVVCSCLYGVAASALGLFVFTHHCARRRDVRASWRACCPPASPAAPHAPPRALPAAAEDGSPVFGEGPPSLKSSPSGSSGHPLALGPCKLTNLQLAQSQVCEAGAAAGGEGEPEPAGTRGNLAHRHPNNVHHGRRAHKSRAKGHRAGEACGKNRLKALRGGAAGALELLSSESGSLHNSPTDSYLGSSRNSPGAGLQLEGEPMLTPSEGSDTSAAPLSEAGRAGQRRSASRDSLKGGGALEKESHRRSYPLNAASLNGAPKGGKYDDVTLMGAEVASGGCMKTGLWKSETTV
T1 sequence (O75581 20-1613 partner): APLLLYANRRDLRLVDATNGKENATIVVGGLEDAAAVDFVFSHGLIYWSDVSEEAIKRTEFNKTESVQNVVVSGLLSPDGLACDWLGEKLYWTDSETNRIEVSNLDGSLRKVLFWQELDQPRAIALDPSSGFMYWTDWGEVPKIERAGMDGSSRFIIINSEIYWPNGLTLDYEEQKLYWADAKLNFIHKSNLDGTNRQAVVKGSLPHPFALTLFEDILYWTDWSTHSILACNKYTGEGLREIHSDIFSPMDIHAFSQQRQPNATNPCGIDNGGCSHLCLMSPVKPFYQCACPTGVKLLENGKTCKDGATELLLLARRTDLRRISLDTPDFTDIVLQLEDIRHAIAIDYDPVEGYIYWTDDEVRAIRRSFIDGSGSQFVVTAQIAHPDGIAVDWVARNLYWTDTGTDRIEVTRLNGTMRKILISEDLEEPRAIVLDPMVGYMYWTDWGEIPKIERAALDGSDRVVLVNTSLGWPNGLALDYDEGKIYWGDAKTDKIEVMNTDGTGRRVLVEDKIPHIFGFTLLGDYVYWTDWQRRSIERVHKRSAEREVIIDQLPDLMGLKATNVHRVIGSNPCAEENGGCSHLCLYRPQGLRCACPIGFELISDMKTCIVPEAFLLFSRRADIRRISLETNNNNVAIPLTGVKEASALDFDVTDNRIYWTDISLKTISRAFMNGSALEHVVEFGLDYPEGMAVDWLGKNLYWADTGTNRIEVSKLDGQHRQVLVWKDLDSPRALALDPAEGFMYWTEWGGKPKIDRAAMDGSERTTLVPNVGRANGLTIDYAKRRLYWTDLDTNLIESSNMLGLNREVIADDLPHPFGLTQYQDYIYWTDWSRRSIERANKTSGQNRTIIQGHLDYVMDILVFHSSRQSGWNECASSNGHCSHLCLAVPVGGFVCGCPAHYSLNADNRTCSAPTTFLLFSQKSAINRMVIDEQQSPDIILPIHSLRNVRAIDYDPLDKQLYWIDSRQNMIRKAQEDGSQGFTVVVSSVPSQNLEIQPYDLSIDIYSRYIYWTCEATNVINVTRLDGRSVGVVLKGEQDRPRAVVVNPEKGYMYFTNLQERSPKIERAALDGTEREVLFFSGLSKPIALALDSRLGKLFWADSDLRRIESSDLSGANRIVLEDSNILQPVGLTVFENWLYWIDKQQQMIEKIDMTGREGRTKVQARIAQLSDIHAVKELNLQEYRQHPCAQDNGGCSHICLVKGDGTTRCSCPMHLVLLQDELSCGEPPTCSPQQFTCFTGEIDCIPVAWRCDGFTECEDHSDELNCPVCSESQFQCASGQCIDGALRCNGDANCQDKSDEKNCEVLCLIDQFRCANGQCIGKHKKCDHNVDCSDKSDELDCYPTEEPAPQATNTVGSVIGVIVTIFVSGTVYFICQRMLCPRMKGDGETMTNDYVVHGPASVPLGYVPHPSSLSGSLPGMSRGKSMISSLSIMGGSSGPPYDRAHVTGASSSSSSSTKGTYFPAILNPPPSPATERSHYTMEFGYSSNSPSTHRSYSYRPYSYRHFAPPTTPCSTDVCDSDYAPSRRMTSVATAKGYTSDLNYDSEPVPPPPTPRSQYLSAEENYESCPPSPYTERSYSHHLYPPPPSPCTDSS
Experimental: Cells were plated into 96-well plates and transfected after 24 h in triplicate with Lipofectamine 2000 (Life Technologies, Carlsbad, Calif.). The amount of plasmid DNA transfected per well was optimized for each expression vector: Renilla luciferase (0.5 ng) (was kindly provided by Jeremy Nathans (John Hopkins)), Wnt ligands (20 ng), Fz receptors (5 ng), Lrp (2.5 ng), Gpr124 (10 ng), Reck (5 ng) and Dkk-1 (10 ng) unless otherwise indicated. The total amount of DNA was adjusted to 100 ng per well with the empty pCS2 vector. Dual luciferase assays were performed using the STF cell line or by co-transfecting 20 ng of M50 Super 8× TOPFlash plasmid (Addgene plasmid #12456). Cells were harvested in passive lysis buffer (E1960, Promega, Wis.) and the activities of the Firefly and Renilla luciferases were measured sequentially using the Dual-Luciferase Reporter Assay system (E1960, Promega, Madison, Wis.) 48 h post-transfection. […] Luciferase activity was measured 24 h after co-culture.
Cells were plated into 96-well plates and transfected after 24 h in triplicate with Lipofectamine 2000 (Invitrogen, Carlsbad, Calif.). […] Cells were harvested in passive lysis buffer (E1960, Promega, Wisconsin) and the activities of the Firefly and Renilla luciferases were measured sequentially using the Dual-Luciferase Reporter Assay system (E1960, Promega, Madison, Wis.) 48 h post-transfection.

zebrafish zygote = type: in vivo, Danio rerio; conditions: injection in zygote, 3 dpf larvae
Experimental: (§1) The following splice-blocking morpholino (MOs) (GeneTools, Eugene, OR) were injected into embryos at the one-cell stage: wnt7aa ([…], 6 ng) (SEQ ID NO.: 123). Synthetic mRNAs were transcribed from pCS2 plasmids after NotI digestion using the mMessage mMachine SP6 Kit (Ambion, Carlsbad, CA) and injected into one-cell stage zebrafish embryo. For Xenopus laevis microinjection, 15 pg of wnt7a or wnt7a^K190A or wnt7a^1-278 mRNA were injected into one ventral blastomere of the four-cell stage embryo.
(§2) zebrafish embryos were imaged with an LSM710 confocal microscope and images were processed in ImageJ. Images of zebrafish development phenotypes were taken on Leica M165 FC. Xenopus larvae were imaged with an Olympus SZX16.

wnt7aa morphants = test: Trunk DRG rescue in wnt7aa morphant zebrafish larvae; type: in vivo, Danio rerio; conditions: 100 pg mRNA injection, 72 hpf
Experimental: Zebrafish (Danio rerio) were raised and handled under standard conditions following the rules of the State of Belgium (protocol approval number: CEBEA-IBMM-2017-22:65). The following line was used: Tg(−17.0neurog1:EGFP)^w61 (McGraw et al., J. Neurosci 28(47):12558-69 (2008)).
as §1, §2

[1] = test system: Wnt7aa^−/− mutant zebrafish; test: Transgenic endothelial expression (kdrl promoter) in Wnt7aa−/− zebrafish: hindbrain CtAs and GLUT1 staining; type: in vivo, Danio rerio; conditions: 60 hpf embryos
Excerpt: (A) Dorsal views of the cerebral vasculatures of 60 hpf WT or Wnt7aa^−/− Tg(kdrl:EGFP) embryos. In Wnt7a^−/− mutants, the intracerebral CtAs are lacking. Wnt7, Wnt7a^K190A or Wnt7a^1-278 were transiently expressed in the endothelium of Wnt7aa^−/− embryos under the control of an endothelial-specific kdrl (Vascular endothelial growth factor receptor kdr-like) promoter. The Wnt7 ligands were expressed as a biscistronic construct with BFP (Blue Fluorescent Protein) used as transgenesis marker. In contrast to uninjected embryos, Wnt7, Wnt7a^K190A or Wnt7a^1-278 restore hindbrain CtAs formation in Wnt7aa^−/− mutants as quantified in (B). (C) Anti-GLUT1 staining of the CtAs after transgenic expression of Wnt7, Wnt7a^K190A and Wnt7a^1-278 in 60 hpf Wnt7aa^−/− embryos. Transgenic expression was achieved as in (A).
Mouse Wnt7, Wnt7a^K190A and Wnt7a^1-278 were transiently expressed in the endothelium of Wnt7aa^−/− embryos under the control of an endothelial-specific kdrl (Vascular endothelial growth factor receptor kdr-like) promoter. The Wnt7 ligands were expressed as a biscistronic construct with BFP (Blue Fluorescent Protein) as transgenesis marker.

B1: Wnt7a^1-278: the N-terminal domain of Wnt7a, single domain truncated variant (protein)
chain: LGASIICNKIPGLAPRQRAICQSRPDAIIVIGEGSQMGLDECQFQFRNGRWNCSALGERTVFGKELKVGSREAAFTYAIIAAGVAHAITAACTQGNLSDCGCDKEKQGQYHRDEGWKWGGCSADIRYGIGFAKVFVDAREIKQNARTLMNLHNNEAGRKILEENMKLECKCHGVSGSCTTKTCWTTLPQFRELGYVLKDKYNEAVHVEPVRASRNKRPTFLKIKKPLSYRKPMDTDLVYIEKSPNYC
modifications: left off: small tags and cut ends
notes: the N-terminal domain of Wnt7a, single domain truncated variant
B1 was tested. Which “signaling capacity via Gpr124/Reck/Fz1” value (Gpr124/Reck/Fz/LRP) did it give?
Its value is about 40%.

What about the “mRNA dose well tolerated without posteriorizing or gross anatomical alterations” value (zebrafish zygote) of the same molecule?
Its value is “up to 1 ng”.

What about the DRG rescue (wnt7aa morphants) of the same molecule?
The DRG rescue was “significant DRG rescues”.

And the “blood-brain barrier (GLUT1 expression)” value ([1]; anti-GLUT1 staining of CtAs)?
Its value is “restored blood-brain barrier”.

What about the “brain angiogenesis / hindbrain CtAs formation” value ([1]; transient endothelial expression) of the same molecule?
Its value is “triggered GPR124/RECK-dependent brain angiogenesis”.
